Results published in the supplement of paper PMC9112550, “Optimization of the antimicrobial peptide Bac7 by deep mutational scanning” (BMC Biology, 2022).

system: Escherichia coli TOP10; assay: shrunken log2 fold change of peptide-encoding DNA abundance (4.5 h post-induction vs induction); higher = less antimicrobial activity (less host growth inhibition); settings: time post-induction: 4.5 h; library: site-saturation at positions 5, 18, 19, 20
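Note: peptides expressed intracellularly from a pBAD plasmid library in pooled LB shake-flask culture, induced with 0.3% L-arabinose, DNA abundance read by NGS, three biological replicates, DESeq2 with apeglm shrinkage.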

Point of comparison: RRIRCRPPRLPRPRPRPELCPRP, “shrunken log2 fold change” value 0.488. Against it:
- RRIRARPPRLPRPRPRPCRTPRP — lower, 0.0201
- RRIRIRPPRLPRPRPRPTMMPRP — lower, -0.0891
- RRIRMRPPRLPRPRPRPGIVPRP — within 0.2 log units, 0.332
- RRIRARPPRLPRPRPRPLLTPRP — within 0.2 log units, 0.667
- RRIRERPPRLPRPRPRPSVTPRP — lower, -0.4
- RRIRTRPPRLPRPRPRPIQAPRP — lower, 0.232
- RRIRDRPPRLPRPRPRPICKPRP — lower, 0.00282
- RRIRDRPPRLPRPRPRPGHAPRP — within 0.2 log units, 0.648
- RRIRLRPPRLPRPRPRPNRAPRP — lower, 0.0133
- RRIRIRPPRLPRPRPRPSCWPRP — lower, -0.322
- RRIRRRPPRLPRPRPRPMTCPRP — lower, 0.129
- RRIRFRPPRLPRPRPRPAWDPRP — lower, 0.0926
- RRIRPRPPRLPRPRPRPIRHPRP — lower, -0.146
- RRIRHRPPRLPRPRPRPISMPRP — lower, -1.58
- RRIRMRPPRLPRPRPRPRFKPRP — within 0.2 log units, 0.498
- RRIRERPPRLPRPRPRPPDLPRP — lower, 0.16
- RRIRIRPPRLPRPRPRPFDIPRP — lower, -1.02
- RRIRFRPPRLPRPRPRPKGGPRP — lower, 0.00425
- RRIRWRPPRLPRPRPRPMKQPRP — lower, -0.208
- RRIRLRPPRLPRPRPRPQPPPRP — within 0.2 log units, 0.517
- RRIRMRPPRLPRPRPRPCWKPRP — lower, -0.0216
- RRIRVRPPRLPRPRPRPEGGPRP — higher, 0.747
- RRIRRRPPRLPRPRPRPHKQPRP — lower, -0.00379
- RRIRRRPPRLPRPRPRPLHLPRP — lower, -0.318
- RRIRRRPPRLPRPRPRPHTWPRP — lower, 0.0615
- RRIRQRPPRLPRPRPRPAPFPRP — within 0.2 log units, 0.613
- RRIRRRPPRLPRPRPRPHVPPRP — lower, -0.148
- RRIRKRPPRLPRPRPRPFDQPRP — lower, -0.0318
- RRIRQRPPRLPRPRPRPAKIPRP — lower, 0.00963
- RRIRSRPPRLPRPRPRPDDYPRP — lower, 0.0211
- RRIRRRPPRLPRPRPRPVMIPRP — lower, 0.224
- RRIRLRPPRLPRPRPRPHRKPRP — lower, -0.295
- RRIRERPPRLPRPRPRPSCVPRP — lower, -0.356
- RRIRLRPPRLPRPRPRPKFDPRP — lower, -0.115
- RRIRCRPPRLPRPRPRPQSPPRP — lower, -0.0224
- RRIRCRPPRLPRPRPRPDVLPRP — lower, -0.489
- RRIRPRPPRLPRPRPRPSGMPRP — lower, -0.183
- RRIRTRPPRLPRPRPRPRVHPRP — lower, 0.0778
- RRIRGRPPRLPRPRPRPLLLPRP — within 0.2 log units, 0.607
- RRIRWRPPRLPRPRPRPRQDPRP — higher, 0.796
- RRIRQRPPRLPRPRPRPTNFPRP — lower, -0.159
- RRIRWRPPRLPRPRPRPSESPRP — lower, 0.0933
- RRIRQRPPRLPRPRPRPFFEPRP — lower, 0.0893
- RRIRPRPPRLPRPRPRPIGEPRP — lower, -0.0647
- RRIRNRPPRLPRPRPRPAMVPRP — lower, -0.0286
- RRIRVRPPRLPRPRPRPGICPRP — lower, -0.0598
- RRIRTRPPRLPRPRPRPWAYPRP — lower, 0.013
- RRIRDRPPRLPRPRPRPRCQPRP — lower, -0.128
- RRIRARPPRLPRPRPRPMLAPRP — higher, 0.881
- RRIRPRPPRLPRPRPRPLKDPRP — lower, -0.115
- RRIRPRPPRLPRPRPRPWSVPRP — lower, -0.101
- RRIRERPPRLPRPRPRPLGWPRP — within 0.2 log units, 0.335
- RRIRSRPPRLPRPRPRPGWLPRP — lower, 0.177
- RRIRWRPPRLPRPRPRPQSWPRP — within 0.2 log units, 0.302
- RRIRWRPPRLPRPRPRPDFPPRP — lower, -0.0386
- RRIRYRPPRLPRPRPRPPWKPRP — lower, 0.0467
- RRIRIRPPRLPRPRPRPCEAPRP — lower, -0.395
- RRIRCRPPRLPRPRPRPCVMPRP — lower, -0.0643
- RRIRNRPPRLPRPRPRPPPNPRP — higher, 1.04
- RRIRARPPRLPRPRPRPWSSPRP — lower, -0.656
- RRIRFRPPRLPRPRPRPCITPRP — lower, -0.709
- RRIRERPPRLPRPRPRPHDCPRP — lower, -0.715
- RRIRWRPPRLPRPRPRPNEEPRP — lower, -0.0212
- RRIRYRPPRLPRPRPRPMCFPRP — lower, -0.335
- RRIRGRPPRLPRPRPRPVWHPRP — lower, 0.228
- RRIRRRPPRLPRPRPRPMHHPRP — lower, 0.0725
- RRIRVRPPRLPRPRPRPVFTPRP — lower, -0.14
- RRIRCRPPRLPRPRPRPEPGPRP — within 0.2 log units, 0.364
- RRIRQRPPRLPRPRPRPVCKPRP — lower, 0.0434
- RRIRWRPPRLPRPRPRPKMAPRP — higher, 0.859
- RRIRPRPPRLPRPRPRPHVCPRP — lower, 0.171
- RRIRDRPPRLPRPRPRPHCCPRP — lower, -0.00968
- RRIRGRPPRLPRPRPRPSMYPRP — lower, 0.173
- RRIRWRPPRLPRPRPRPIIDPRP — lower, 0.0788
- RRIRVRPPRLPRPRPRPLSSPRP — lower, 0.0511
- RRIRERPPRLPRPRPRPFATPRP — lower, 0.119
- RRIRQRPPRLPRPRPRPQVCPRP — lower, 0.0103
- RRIRYRPPRLPRPRPRPWRFPRP — lower, -0.00218
- RRIRVRPPRLPRPRPRPVKPPRP — lower, 0.247
- RRIRHRPPRLPRPRPRPTDDPRP — lower, 0.0853
- RRIRWRPPRLPRPRPRPMASPRP — within 0.2 log units, 0.659
- RRIRGRPPRLPRPRPRPLEVPRP — lower, 0.252
- RRIRRRPPRLPRPRPRPYILPRP — within 0.2 log units, 0.366
- RRIRQRPPRLPRPRPRPPRHPRP — within 0.2 log units, 0.644
- RRIRCRPPRLPRPRPRPRNPPRP — lower, 0.176
- RRIRHRPPRLPRPRPRPDESPRP — lower, 0.0491
- RRIRYRPPRLPRPRPRPLLPPRP — lower, -0.266
- RRIRLRPPRLPRPRPRPPMSPRP — lower, 0.0743
- RRIRNRPPRLPRPRPRPDKRPRP — lower, -0.0491
- RRIRWRPPRLPRPRPRPHLEPRP — lower, -0.16
- RRIRERPPRLPRPRPRPVVAPRP — lower, 0.182
- RRIRGRPPRLPRPRPRPEHVPRP — lower, 0.0775
- RRIRTRPPRLPRPRPRPRTYPRP — lower, -0.288
- RRIRNRPPRLPRPRPRPLQCPRP — lower, -0.00595
- RRIRPRPPRLPRPRPRPYWWPRP — lower, 0.0199
- RRIRFRPPRLPRPRPRPLYPPRP — lower, -0.205
- RRIRSRPPRLPRPRPRPPQRPRP — within 0.2 log units, 0.451
- RRIRKRPPRLPRPRPRPDGEPRP — higher, 1.16
- RRIRRRPPRLPRPRPRPPPYPRP — within 0.2 log units, 0.366
- RRIRFRPPRLPRPRPRPKPMPRP — within 0.2 log units, 0.521
- RRIRIRPPRLPRPRPRPAWFPRP — lower, -0.00823
- RRIRLRPPRLPRPRPRPLMDPRP — lower, -0.0257
- RRIRFRPPRLPRPRPRPERIPRP — lower, -0.352
- RRIRERPPRLPRPRPRPDMYPRP — lower, -0.0361
- RRIRGRPPRLPRPRPRPMRMPRP — higher, 1.4
- RRIRDRPPRLPRPRPRPKAIPRP — lower, -0.0326
- RRIRLRPPRLPRPRPRPTEQPRP — lower, 0.0272
- RRIRKRPPRLPRPRPRPFKFPRP — lower, -0.0557
- RRIRRRPPRLPRPRPRPNILPRP — lower, -0.0406
- RRIRFRPPRLPRPRPRPLQNPRP — lower, 0.0294
- RRIRCRPPRLPRPRPRPDWWPRP — lower, 0.256
- RRIRSRPPRLPRPRPRPWDAPRP — lower, 0.069
- RRIRERPPRLPRPRPRPAPCPRP — lower, 0.0086
- RRIRCRPPRLPRPRPRPKFQPRP — lower, -0.0341
- RRIRVRPPRLPRPRPRPRRWPRP — within 0.2 log units, 0.334
- RRIRSRPPRLPRPRPRPSTFPRP — lower, -0.109
- RRIRLRPPRLPRPRPRPFMIPRP — lower, -0.186
- RRIRGRPPRLPRPRPRPRKPPRP — within 0.2 log units, 0.399
- RRIRFRPPRLPRPRPRPEFGPRP — lower, 0.0197
- RRIRSRPPRLPRPRPRPVPCPRP — lower, -0.226
- RRIRSRPPRLPRPRPRPAGQPRP — lower, -0.0166
- RRIRIRPPRLPRPRPRPGSIPRP — lower, -0.471
- RRIRDRPPRLPRPRPRPHRCPRP — lower, -0.00141
- RRIRHRPPRLPRPRPRPDVQPRP — lower, 0.0591
